A value given as a limit tells only on which side of the number the result lay.

As usually defined, the stoichiometry N is the number of molecules, sites or subunits per partner or assembly.

For the assay, the target named is hRIO2(1-321)Δ(131-146) (human) (UniProt Q9BVS4). Put plainly: AUC.

For “hRIO2(1-321)Δ(131-146) (from UniProt Q9BVS4 1-321) (domain or fragment)”, the percent dimer at 27 μM was > 20% and the stoichiometry N stood at 2.
